{"source": "paper PMC3828182", "key": {"[1]": {"molecular_target": "FLAG-tagged HPV51 chimera 4 L2 (Ch4L2-FLAG) (human papillomavirus type 51, Ma strain | human papillomavirus type 51, Nu strain) (UniProt P26539)"}, "[2]": {"molecular_target": "FLAG-tagged HPV51 chimera 5 L2 (Ch5L2-FLAG) (human papillomavirus type 51, Ma strain | human papillomavirus type 51, Nu strain) (UniProt P26539)"}}}
{"substance": "transport protein particle complex subunit 8 (TRAPPC8) (from UniProt Q9Y2L5 1-1435) (natural protein)", "values": [{"measurement": "percent of HeLa cells GFP-positive by flow cytometry after inoculation with HPV51 PsV containing the (untagged) Ch4L2 and a GFP-expression plasmid", "setting": "[1]", "value": 4, "unit": "%"}, {"measurement": "percent of HeLa cells GFP-positive by flow cytometry after inoculation with HPV51 PsV containing the (untagged) Ch5L2 and a GFP-expression plasmid", "setting": "[2]", "value": 80, "unit": "%"}]}
